Patent publication US20210220450A1, “TREATMENT OF AN IOP CONDITION” (The Research Foundation for The State University of New York, priority 2013, published 2021)

B1: NE-tPA: non-enzymatically active tPA, serine-478 replaced by alanine (Innovative Research) (protein)
chain: SYQVICRDEKTQMIYQQHQSWLRPVLRSNRVEYCWCNSGRAQCHSVPVKSCSEPRCFNGGTCQQALYFSDFVCQCPEGFAGKCCEIDTRATCYEDQGISYRGTWSTAESGAECTNWNSSALAQKPYSGRRPDAIRLGLGNHNYCRNPDRDSKPWCYVFKAGKYSSEFCSTPACSEGNSDCYFGNGSAYRGTHSLTESGASCLPWNSMILIGKVYTAQNPSAQALGLGKHNYCRNPDGDAKPWCHVLKNRRLTWEYCDVPSCSTCGLRQYSQPQFRIKGGLFADIASHPWQAAIFAKHRRSPGERFLCGGILISSCWILSAAHCFQERFPPHHLTVILGRTYRVVPGEEEQKFEVEKYIVHKEFDDDTYDNDIALLQLKSDSSRCAQESSVVRTVCLPPADLQLPDWTECELSGYGKHEALSPFYSERLKEAHVRLYPSSRCTAQHLLNRTVTDNMLCAGDTRSGGPQANLHDACQGDSGGPLVCLNDGRMTLVGIISWGLGCGQKDVPGVYTKVTNYLDWIRDNMRP
B2: RAP: inhibitor of LRP1 (protein, UniProt P30533 35-357, looked up)
Alpha-2-macroglobulin …: YSREKNQPKPSPKRESGEEFRMEKLNQLWEKAQRLHLPPVRLAELHADLKIQERDELAWKKLKLDGLDEDGEKEARLIRNLNVILAKYGLDGKKDARQVTSNSLSGTQEDGLDDPRLEKLWHKAKTSGKFSGEELDKLWREFLHHKEKVHEYNVLLETLSRTEEIHENVISPSDLSDIKGSVLHSRHTELKEKLRSINQGLDRLRRVSHQGYSTEAEFEEPRVIDLWDLAQSANLTDKELEAFREELKHFEAKIEKHNHYQKQLEIAHEKLRHAESVGDGERVSRSREKHALLEGRTKELGYTVKKHLQDLSGRISRARHNEL

Key:
C57BL/6J mice = assay: Outflow facility in TA and protein treated C57BL/6J mouse eyes (Example 13); type: in vivo; conditions: TA five days before intravitreal protein (2 μl, 5 μg/μl); two days after injection
Method: C57BL/6J mice were divided into two groups:
1) Animals receiving bilateral steroid (TA) injection subconjunctivally five days prior to protein injection (FIG. 10b) and 2) Animals not receiving subconjunctival steroids (FIG. 10c).
(§1) 1) Animals that received unilateral intravitreal injection with 2 μl of tPA (5 μg/μl, Actilyse; Boehringer Ingelheim, Ingelheim am Rhein, Germany) while the contralateral eye received 2 μl of BSA (5 μg/μl; Gold Biotechnology, St Louis, Mo., USA), and 2) Animals that received unilateral intravitreal injections with 2 μl of non-enzymatically active tPA (NE-tPA/S478A-tPA) (5 μg/μl; Innovative Research, Novi, Mich., USA) while the contralateral eye received 2 μl of BSA. Animals were euthanized two days after intravitreal injection.
(§2) Outflow facility determination: Mouse eyes were enucleated immediately after euthanasia. Outflow facility was determined using a constant pressure method, as previously described. Pressure was raised in steps of 4 cmH2O, from 8 cmH2O (5.88 mmHg) to 32 cmH2O (23.54 mmHg) by increasing the height of a column of fluid of BSS. […] Flow was constantly measured via a microfluidic flow sensor (0.07-1.5 uL/min, MFS1; Elveflow, Paris, France). […] Any eyes that developed visible leaks during outflow facility determination, or that had pressure-flow correlations with R^2<0.9, were excluded from analysis but were used for RNA quantification.

Mmp-2, Mmp-9, Mmp-13 [1] = assay: Mmp expression in TA and protein treated C57BL/6J eyes (Example 13); type: in vivo, mouse; conditions: vs BSA treated controls
PlatKO mice = assay: Outflow facility in protein treated PlatKO mouse eyes (Example 14); type: in vivo; conditions: intravitreal protein
Method: (§3) PlatKO and Mmp-9KO mice were also not given steroids prior to protein injections (FIG. 10c). Within each cohort, animals were divided into two groups:
as §1
as §2, with “BSS. Steady state was initially achieved after 10 minutes.” for “BSS.”

Mmp-2, Mmp-9, Mmp-13 [2] = assay: Mmp expression in protein treated PlatKO eyes (Example 14); type: in vivo, mouse; conditions: vs BSA treated eyes
Method: Tissue collection and confirmation of transgene expression: After outflow facility determination in adenovirus treated mice, mCherry expression in the TM was determined in all AdPLAT and AdPLATNE injected eyes. The eyes were dissected on ice to isolate a rim of tissue containing the TM by removing most of the iris and ciliary body. […] After observation, dissected rims were immediately immersed in RNA stabilizing agent (RNAlater, Invitrogen by ThermoFisher Scientific, Waltham, Mass., USA) and frozen. […]
RNA isolation and quantitative real time PCR: Tissue collected was pooled (four eyes) and homogenized in TRIzol reagent (Life Technologies, Carlsbad, Calif., USA). […] RNA concentration was determined with a Nanodrop ND-1000 Spectrophotometer (ThermoFisher Scientific, Waltham, Mass., USA). cDNA was synthesized by using High-Capacity cDNA Reverse Transcription Kit (Applied Biosystems, Waltham, Mass., USA) according to manufacturer's protocol. Quantitative real-time PCR (qRT-PCR) was performed by using Green-2-Go qPCR Mastermix-ROX (BioBasic, Amherst, N.Y., USA) on a QuantStudio 6 Flex thermal cycler (Applied Biosystems, Carlsbad, Calif., USA).
mRNA expression of sheep PLAT and mouse Mmp-2, Mmp-9, and Mmp-13 in angle ring tissues was determined. […] The relative fold change was calculated by using the ΔΔCt method. […]

[3] = system: Mmp-2, Mmp-9, Mmp-13, Plat; assay: Mmp and Plat expression in protein treated C57BL/6J eyes not exposed to steroids (Example 15); type: in vivo, mouse; conditions: C57BL/6J not exposed to steroids
Mmp-9KO mice = assay: Outflow facility in protein treated Mmp-9KO mouse eyes (Example 16); type: in vivo; conditions: intravitreal protein, p>0.05
Method: as §3, §1
as §2, with “BSS. Steady state was initially achieved after 10 minutes.” for “BSS.”

MMP-2, MMP-9, MMP-13 [4] = assay: MMP expression in PA treated HTM cells (Examples 17, 18); type: cell-based
Tg-MYOCY437H mice = assay: Outflow facility in Tg-MYOCY437H mouse eyes (Example 19); type: in vivo
Method: To investigate whether corticosteroids affect outflow facility in Tg-MYOCY437H mice, animals received bilateral injections (20 μl) with either triamcinolone acetonide (TA) (40 mg/ml, Kenalog-40; Bristol-Myers Squibb, NY, USA) suspension or phosphate-buffered saline (PBS) (Gibco, ThermoFisher Scientific, Waltham, Mass., USA) subconjunctivally using a 100 μL Hamilton syringe with a 26-gauge needle (Precision Glide, Becton Dickinson & CO, Franklin Lakes, N.J., USA). They were euthanized one week later for outflow facility measurement.
To investigate whether tPA can affect outflow facility in Tg-MYOCY437H mice, and determine whether tPA enzymatic action is necessary for such an effect, intravitreal injections were performed using a 10 μL Hamilton syringe with 36-gauge stainless steel needles (WPI Inc, Sarasota, Fla., USA). […] Animals were sacrificed either two or five days after intravitreal injections for outflow facility measurement. […]
Mouse eyes were enucleated immediately after euthanasia. Outflow facility was determined using a microfluidic flow sensor (0.07-1.5 uL/min, MFS1; Elveflow, Paris, France) and constant pressure method, as previously described (Hu, Barron et al. 2019). […] Any eyes that developed visible leaks or that had pressure-flow correlations with […] were excluded from analysis but were used for RNA quantification.

Mmp-2, Mmp-9, Mmp-13 [5] = assay: Mmp expression in Tg-MYOCY437H angle ring tissue (Example 19); type: in vivo, mouse; conditions: 2 days, vs BSA treated eyes
Method: Eyes were flash frozen in liquid nitrogen after outflow facility determination and subsequently dissected on ice to obtain the angle ring tissues containing the TM, as previously described (Kumar, Shah et al. 2013). Dissected TM tissues were immersed in RNAlater solution (Invitrogen, Waltham, Mass., USA) and then snap-frozen and stored at −80° C. until RNA extraction. Tissue collected was pooled (four eyes) and homogenized in TRIzol reagent for RNA isolation, per manufacturer's instructions (Life Technologies, Carlsbad, Calif., USA). RNA concentration was determined with a Nanodrop ND-1000 Spectrophotometer (Thermo Scientific, Wilmington, Del., USA). cDNA was synthesized by using High-Capacity cDNA Reverse Transcription Kit (Applied Biosystems, Waltham, Mass., USA) according to manufacturer's protocol. Quantitative real-time PCR (qRT-PCR) was performed by using Green-2-Go qPCR Mastermix-ROX (Bio Basic, Amherst, N.Y., USA) on a QuantStudio 6 Flex thermal cycler (Applied Biosystems, Carlsbad, Calif., USA). mRNA expression of Plat, Plau, Pai-1, Mmp-2, Mmp-9, and Mmp-13 in angle ring tissues was determined. Primers were designed by using Primer-BLAST (https://www.ncbi.nlm.nih.gov/tools/primer-blast/index.cgi?LINK_LOC=BlastHome; in the public domain); primer sequences are listed in Table 2. Primer specificity was confirmed by agarose gel electrophoresis and multiple-sized amplification products were absent on inspection of melting curves. Target mRNA expression values were normalized to the expression levels of Rps11 (ribosomal protein S11). The relative fold change was calculated by using the ΔΔCt method (Hu, Wang et al. 2015). Outliers identified via the Thompson Tau test were removed from analysis.

Row | Molecule | outflow facility, mean±standard deviation (C57BL/6J mice) | Mmp-2, Mmp-9 and Mmp-13 expression (Mmp-2, Mmp-9, Mmp-13 [1]) | increase in outflow facility compared to BSA treated eyes (PlatKO mice) [%] | outflow facility, mean±standard deviation (PlatKO mice; no steroid, two days) | Mmp-2 expression (Mmp-2, Mmp-9, Mmp-13 [2]) | Mmp-9 expression (Mmp-2, Mmp-9, Mmp-13 [2]) | endogenous Plat expression [3] | gene expression changes in Mmp-2, Mmp-9 and Mmp-13 ([3]; vs BSA) | effect on outflow facility (Mmp-9KO mice) | MMP-2 expression (MMP-2, MMP-9, MMP-13 [4]; PA treated HTM cells, between treatments) | expression (FIG. 17C, MMP-9) (MMP-2, MMP-9, MMP-13 [4]; PA treated HTM cells, vs PA+BSA) | improvement of outflow facility (Tg-MYOCY437H mice) [%] | Mmp-2 expression (Mmp-2, Mmp-9, Mmp-13 [5]) | Mmp-9 expression (Mmp-2, Mmp-9, Mmp-13 [5]) | Mmp-13 expression (Mmp-2, Mmp-9, Mmp-13 [5]) | MMP-9 expression (MMP-2, MMP-9, MMP-13 [4]; added to PA+NE-tPA, vs PA+NE-tPA treated cells)
1 | B1 | 114±40.3×10^−5 μl/min/mmHg | significant upregulation | 51 | 92±42×10^−5 μl/min/mmHg | not significantly different | significant upregulation | did not cause significant changes | not significantly different | did not increase | not significantly different | significant upregulation | ~37 | no significant difference | significantly higher | significantly higher | 
2 | B2 |  |  |  |  |  |  |  |  |  |  |  |  |  |  |  | significantly lower
